Patent US20250066476A1 (TENEOONE, published 2025)
Residue numbers refer to the chain shown, from its start.

T1: human B-cell maturation antigen (BCMA) (human, UniProt Q02223 1-54, limits assumed)
T1 construct: also called CD269; TNFRSF17
T1 sequence (looked up): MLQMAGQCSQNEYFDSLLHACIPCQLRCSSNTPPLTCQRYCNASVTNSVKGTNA

B1: anti-BCMA heavy chain antibody clone ID 308837 (antibody, V domains shown)
VH: EVQLLESGGGLVQPGGSLRLSCAASGFTVSSYGMSWVRQAPGKGPEWVSGIRGSDGSTYYADSVKGRFTISRDNATNTLYLQMNSLRAEDTAVYYCAKQGGNDGPFDYRGQGTLVTVSS
notes: heavy chain-only antibody (UniAb)
B2: anti-BCMA heavy chain antibody clone ID 308902 (antibody, V domains shown)
VH: B1 VH with A75S, T76K, G101E, Y108H
notes: as for B1
B3: anti-BCMA heavy chain antibody clone ID 308636 (antibody, V domains shown)
VH: B1 VH with L4V, A40P, P45M, Y59F
notes: as for B1
B4: anti-BCMA heavy chain antibody clone ID 308912 (antibody, V domains shown)
VH: B1 VH with A40P, P45M, T76K
notes: as for B1
B5: anti-BCMA heavy chain antibody clone ID 308635 (antibody, V domains shown)
VH: B1 VH with P14A, A75S, T76K, Y95H, G101E
notes: as for B1
B6: anti-BCMA heavy chain antibody clone ID 308806 (antibody, V domains shown)
VH: B1 VH with V29I, P45V, S57T, N74S, A75S, T76R, Y108H
notes: as for B1
B7: anti-PSMA heavy-chain antibody clone ID 345505 (antibody, V domains shown)
VH: QVQLVESGGGVVQPGRSLRLSCAASGFTFISYGMHWVRQAPGKGLEGVAVIWYDGSNRYYADSVKGRFTISRDNSKNTLYLQMNSLRAEDTAVYYCAREPRIGYYYESSGYYSLDYRGQGTLVTVSS
notes: heavy chain-only antibody (UniAb/HCAb)
B8: anti-PSMA heavy-chain antibody clone ID 325932 (antibody, V domains shown)
VH: B7 VH with T28S, I30S
notes: as for B7
B9: anti-PSMA heavy-chain antibody clone ID 345510 (antibody, V domains shown)
VH: B7 VH with T28S, I30S, G47W, R58K, L79M
notes: as for B7
B10: anti-PSMA heavy-chain antibody clone ID 345508 (antibody, V domains shown)
VH: B7 VH with T28S, I30S, L45P, G47W
notes: as for B7
B11: anti-PSMA heavy-chain antibody clone ID 345509 (antibody, V domains shown)
VH: B7 VH with V11L, R16G, T28S, I30S, R58K, L79M
notes: as for B7

Molecular target: T1, human B-cell maturation antigen (BCMA)
Assay: ELISA protein and cell-binding assays

Row | Binder | binding result
1 | B1 | binds
2 | B2 | binds
3 | B3 | binds
4 | B4 | binds
5 | B5 | binds
6 | B6 | binds

Molecular target: T2, human PSMA (Prostate Specific Membrane Antigen, Glutamate Carboxypeptidase II) (human, UniProt Q04609 1-750)
T2 construct: whole, on cells; the cell line is named under assay; also called FOLH1
Assay: flow cytometry on LNCaP cells
Procedure: Briefly, 50,000 target cells were stained with a dilution series of purified UniAbs™ for 30 minutes at 4° C. Following incubation, the cells were washed twice with flow cytometry buffer (1×PBS, 1% BSA, 0.1% NaN₃) and stained with goat F(ab′)₂ anti-human IgG conjugated to R-phycoerythrin (PE) (Southern Biotech, cat. #2042-09) to detect cell-bound antibodies. After a 20-minute incubation at 4° C., the cells were washed twice with flow cytometry buffer and the mean fluorescence intensity (MFI) was measured by flow cytometry. The MFI of cells stained with secondary antibody alone were used for determination of background signal and binding of each antibody was converted to fold over background. Binding to cynomolgus PSMA positive cells was determined using the same protocol with the following modifications: the target cells were from Freestyle 293-F cells (ThermoFisher R79007) transiently transfected to express the extracellular domain of cynomolgus PSMA. In some experiments EC50 values were calculated using GraphPad Prism 7.
Column 1 indicates the clone ID of the HCAb. Column 2 indicates binding to LNCaP cells measured as fold over the background MFI signal.

T2 sequence (Q04609 whole entry): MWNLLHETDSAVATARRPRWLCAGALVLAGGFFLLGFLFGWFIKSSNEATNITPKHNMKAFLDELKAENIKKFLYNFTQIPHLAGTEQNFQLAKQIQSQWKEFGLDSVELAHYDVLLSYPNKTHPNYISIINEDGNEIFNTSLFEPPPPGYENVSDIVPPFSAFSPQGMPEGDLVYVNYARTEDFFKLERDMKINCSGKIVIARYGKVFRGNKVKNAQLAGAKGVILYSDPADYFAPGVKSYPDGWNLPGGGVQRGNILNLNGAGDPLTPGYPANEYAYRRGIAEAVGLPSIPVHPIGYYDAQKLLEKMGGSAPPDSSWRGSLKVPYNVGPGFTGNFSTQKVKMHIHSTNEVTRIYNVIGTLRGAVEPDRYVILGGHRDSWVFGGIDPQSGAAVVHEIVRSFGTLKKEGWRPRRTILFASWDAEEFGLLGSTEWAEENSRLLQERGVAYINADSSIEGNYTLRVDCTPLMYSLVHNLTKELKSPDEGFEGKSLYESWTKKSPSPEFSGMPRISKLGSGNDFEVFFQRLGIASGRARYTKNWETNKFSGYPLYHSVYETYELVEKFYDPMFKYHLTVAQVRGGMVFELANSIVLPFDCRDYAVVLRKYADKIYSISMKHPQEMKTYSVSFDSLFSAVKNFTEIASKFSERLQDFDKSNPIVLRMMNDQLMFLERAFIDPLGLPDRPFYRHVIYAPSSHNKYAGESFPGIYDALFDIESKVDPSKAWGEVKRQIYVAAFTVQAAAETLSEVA

Row | Binder | fold over the background MFI signal [fold over background MFI]
7 | B7 | 59
8 | B8 | 64
9 | B9 | 13
10 | B10 | 55
11 | B11 | 37
